Biological target: HER2 (His-tagged HER2 protein) (UniProt P04626 23-652)
Assay: Ni-NTA bead pull-down with RT-qPCR quantification; 1.5 mM Mg2+; 3 nM HER2, aptamer 0-100 nM; 30 mM Tris-HCl, 150 mM NaCl, 1.5 mM MgCl2, pH not stated, 30 min at room temperature (bead assay); cells 37 C, 30 min to 4 h
Conditions: tags: His

Binder: AGCCGCGAGGGGAGGGAUAGGGUAGGGCGCGGCU (XNA, 2'-fluoro C and U (all pyrimidines)) [HER2 RNA aptamer (2'-F pyrimidine)]
- Kd: 16.5 ± 4.4 nM
